Results from article PMC4770077.

Tests used:
Assay in all cases: BLI; biotinylated trimeric gp140 immobilised on streptavidin biosensors; Fabs 1-32 uM in solution; 30 C, 1,000 r.p.m.; kinetic buffer (1X PBS, 0.01% BSA, 0.02% Tween 20, 0.005% NaN3); association 4 min, dissociation 8 min; 1:1 binding model; mean of curves with R2 >= 0.95
[1] = target: 426c.TM5ΔV1-3 soluble trimeric gp140 (426c N276D S278R N460D N463D G471S ΔV1 V2 V3) (HIV-1 (clade C, 426c))
[2] = target: 426c.TM4ΔV1-3 soluble trimeric gp140 (426c S278R N460D N463D G471S ΔV1 V2 V3) (HIV-1 (clade C, 426c))
[3] = target: 426c.TM3 soluble trimeric gp140 (426c S278R N460D N463D) (HIV-1 (clade C, 426c))
[4] = target: 426c.TM2 soluble trimeric gp140 (426c S278A N460D N463D) (HIV-1 (clade C, 426c))
[5] = target: 426c.TM4 soluble trimeric gp140 (426c S278R N460D N463D G471S) (HIV-1 (clade C, 426c))
[6] = target: 426c.TM5 soluble trimeric gp140 (426c N276D S278R N460D N463D G471S) (HIV-1 (clade C, 426c))
[7] = target: 426c.TM1 soluble trimeric gp140 (426c N276D N460D N463D) (HIV-1 (clade C, 426c))
[8] = target: 426c.TM1ΔV1-3 soluble trimeric gp140 (426c N276D N460D N463D ΔV1 V2 V3) (HIV-1 (clade C, 426c))

Substance | Ka [1] [M⁻¹] | koff [1] [s⁻¹] | kon [1] [M⁻¹ s⁻¹] | Ka [2] [M⁻¹] | koff [2] [s⁻¹] | kon [2] [M⁻¹ s⁻¹] | Ka [3] [M⁻¹] | koff [3] [s⁻¹] | kon [3] [M⁻¹ s⁻¹] | Ka [4] [M⁻¹] | koff [4] [s⁻¹] | kon [4] [M⁻¹ s⁻¹] | Ka [5] [M⁻¹] | koff [5] [s⁻¹] | kon [5] [M⁻¹ s⁻¹] | Ka [6] [M⁻¹] | koff [6] [s⁻¹] | kon [6] [M⁻¹ s⁻¹] | Ka [7] [M⁻¹] | koff [7] [s⁻¹] | also measured
germline 3BNC60 Fab | 2180 | 0.477 | 1040 | 3490 | 0.398 | 1410 |  |  |  |  |  |  |  |  |  |  |  |  |  |  | 
germline 12A21 Fab | 30800 | 0.0515 | 1590 | 311000 | 0.0305 | 9470 | 174000 | 0.279 | 48500 | 201000 | 0.274 | 55200 | 334000 | 0.168 | 56200 | 38500 | 0.403 | 15500 |  |  | 
germline VRC01 Fab | 1.06e+07 | 0.00065 | 6860 | 1.47e+06 | 0.00426 | 6250 | 562000 | 0.064 | 36000 | 628000 | 0.0579 | 36300 | 1.08e+06 | 0.0264 | 28700 | 1.14e+07 | 0.00225 | 25600 | 1.31e+06 | 0.0113 | kon [7]: 14800 M⁻¹ s⁻¹; Ka [8]: 3.09e+06 M⁻¹; koff [8]: 0.00157 s⁻¹; kon [8]: 4840 M⁻¹ s⁻¹
germline VRC-CH31 Fab | 8950 | 0.24 | 2400 |  |  |  |  |  |  |  |  |  |  |  |  |  |  |  |  |  | 
germline VRC-PG19 Fab | 8.93e+06 | 0.00216 | 19300 | 8.9e+06 | 0.0027 | 24100 | 2.24e+06 | 0.0442 | 98900 | 416000 | 0.172 | 71500 | 5.45e+06 | 0.018 | 98000 | 5.22e+06 | 0.016 | 83800 | 287000 | 0.14 | kon [7]: 40000 M⁻¹ s⁻¹; Ka [8]: 353000 M⁻¹; koff [8]: 0.0315 s⁻¹; kon [8]: 11100 M⁻¹ s⁻¹
germline VRC-PG20 Fab | 2.45e+08 | 0.000149 | 41200 | 3.84e+07 | 0.000511 | 24500 | 1.2e+07 | 0.00487 | 60500 | 3.88e+06 | 0.0129 | 50900 | 2.28e+07 | 0.00257 | 61100 | 1.78e+08 | 0.000553 | 112000 | 1.4e+07 | 0.00343 | kon [7]: 49700 M⁻¹ s⁻¹; Ka [8]: 1.24e+07 M⁻¹; koff [8]: 0.00104 s⁻¹; kon [8]: 13500 M⁻¹ s⁻¹
